pKd: −log10 of the molar value.
Molecular target: XPO1 (human) (human) (UniProt O14980)
Assay: other fluorescence titration; competition differential bleaching: MBP-NES competes with the probe FITC-NESPKI for XPO1, in the presence of excess RanGTP (GSP1 179ter, Q71L); analysed in PALMIST

UniProt O14980, sequence (O14980 whole entry): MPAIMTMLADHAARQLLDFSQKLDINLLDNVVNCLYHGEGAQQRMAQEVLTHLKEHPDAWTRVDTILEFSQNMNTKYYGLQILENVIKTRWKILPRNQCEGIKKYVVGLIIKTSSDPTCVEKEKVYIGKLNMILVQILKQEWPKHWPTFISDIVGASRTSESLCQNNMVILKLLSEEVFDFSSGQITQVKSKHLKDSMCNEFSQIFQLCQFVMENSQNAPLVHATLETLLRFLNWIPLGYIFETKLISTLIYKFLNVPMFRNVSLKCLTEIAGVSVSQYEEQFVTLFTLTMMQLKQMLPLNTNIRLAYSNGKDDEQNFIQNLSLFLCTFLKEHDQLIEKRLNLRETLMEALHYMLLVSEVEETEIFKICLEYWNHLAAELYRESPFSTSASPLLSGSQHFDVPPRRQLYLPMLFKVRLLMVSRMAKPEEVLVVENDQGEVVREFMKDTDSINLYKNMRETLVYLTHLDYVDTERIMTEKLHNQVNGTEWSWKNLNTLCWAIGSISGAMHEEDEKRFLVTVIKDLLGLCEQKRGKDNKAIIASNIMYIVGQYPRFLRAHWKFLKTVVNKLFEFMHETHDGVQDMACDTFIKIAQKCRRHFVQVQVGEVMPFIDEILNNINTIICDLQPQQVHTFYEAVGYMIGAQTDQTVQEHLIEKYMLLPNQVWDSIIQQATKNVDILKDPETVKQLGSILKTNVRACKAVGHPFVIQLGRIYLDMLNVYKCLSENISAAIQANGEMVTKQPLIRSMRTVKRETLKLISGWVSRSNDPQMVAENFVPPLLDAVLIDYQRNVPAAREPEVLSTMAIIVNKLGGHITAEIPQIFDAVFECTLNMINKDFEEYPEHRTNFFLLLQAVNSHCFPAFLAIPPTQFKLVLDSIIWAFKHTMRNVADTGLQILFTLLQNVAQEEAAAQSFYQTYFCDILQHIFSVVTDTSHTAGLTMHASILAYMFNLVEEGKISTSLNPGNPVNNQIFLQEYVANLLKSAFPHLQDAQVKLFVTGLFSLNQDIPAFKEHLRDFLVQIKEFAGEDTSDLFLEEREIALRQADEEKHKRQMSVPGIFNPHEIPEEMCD

- pKd: 4.89
Substance: MBP-NESTDP (maltose binding protein fused to the putative NES peptide of TDP-43, residues 236-253)
